Results on eight molecules are retold here after patent publication US20240166692A1.

Broadly, the Kd is the constant that tells how readily two partners part at equilibrium. Broadly, the koff is a measure of how fast the partners let go of each other. What is called kon is a measure of how fast the partners come together. Low readings indicate slow association, high ones fast association.

Test [1] has as its target C3b (component obtained after hydrolysis of complement component 3, C3) (UniProt P01024). Put plainly: ELISA screen of optimized Nf1 variants. For orientation: An ELISA detects its analyte on a solid surface through an enzyme-linked reagent.
Test [2] has the same target. Put plainly: BLI (Octet RED96), GFP tagged Nanofitin captured on anti-GFP Nanofitin biosensor, C3b in solution, 1:1 fit.
For test [3] the target is unchanged. Put plainly: biolayer interferometry. A general note: BLI is a label-free optical method that tracks binding on a fibre tip over time.
For test [4] the target is unchanged. Put plainly: biolayer interferometry; B10 recombinant from E. coli; untagged B10, recombinant from E. coli.
The target is the same in test [5]. As to the kind of experiment: biolayer interferometry; B10 by full chemical synthesis.

Residue numbers refer to the chain shown, from its start.

B1: B10 (SEQ ID NO: 25), GFP tagged anti-C3 Nanofitin (designed binder, not shown: large carriers)
chain: MVKVKFDATGEEKEVDTSKISAVYRTGKDVLFSYDDNGKIGWGYVSEKDAPKELLDLLARAERE
Consider B1, for which the OD 450 nm in test [1] was above 4 OD 450 nm. For the same molecule, in test [2], the Kd was 7.31 nM, the off-rate constant (koff) is 0.000433 s⁻¹ and the kon was 59200 M⁻¹ s⁻¹.

B2: B10 Nanofitin with N-terminal peptide (10-mers) tag and C-terminal peptide (15-mers) tag (designed binder, not shown: small tags and cut ends)
chain: B1 chain
Turning to B2, the dissociation constant Kd in test [3] worked out at 2.5 nM.

B3: B10 Nanofitin with N-terminal peptide (10-mers) tag and C-terminal 30 kDa protein (designed binder, not shown: large carriers; small tags and cut ends)
chain: B1 chain
As for B3, in test [3], the Kd was 7.3 nM.

B4: B10 Nanofitin without N- or C-terminal tag (designed binder)
chain: B1 chain
Turning to B4, the results for the Kd in test [4] and in test [5] were 18.5 nM and 18 nM, respectively.

B5: B10 Nanofitin with N-terminal peptide (10-mers) tag and C-terminal Nanofitin (designed binder, not shown: small tags and cut ends)
chain: B1 chain
Consider B5, for which, in test [3], the Kd is 11.5 nM.

B6: B10 Nanofitin with N-terminal 48 kDa protein (designed binder, not shown: small tags and cut ends)
chain: B1 chain
The molecule B6 returned a Kd in test [3] of 6.7 nM.

B7: H03 (SEQ ID NO: 26), GFP tagged anti-C3 Nanofitin (designed binder, not shown: large carriers)
chain: B1 chain with D7A, S21A, A22N, T26V
The molecule B7 gave an OD 450 nm in test [1] above 4 OD 450 nm. In test [2], the Kd came to 2.89 nM, the koff came out at 0.000188 s⁻¹ and the on-rate constant (kon) amounted to 65200 M⁻¹ s⁻¹.

B8: B10 Nanofitin with N-terminal peptide (10-mers) tag (designed binder, not shown: small tags and cut ends)
chain: B1 chain
With B8, in test [3], the Kd came to 8.2 nM.
